Laboratory results published in patent publication US20220288204A1, “DOSAGE AND ADMINISTRATION OF ANTI-ERBB3 (HER3) MONOCLONAL ANTIBODIES TO TREAT TUMORS ASSOCIATED WITH NEUREGULIN 1 (NRG1) GENE FUSIONS” (ELEVATION ONCOLOGY, INC., priority 2021, published 2022).

Experiments:
[1] = tested on: LUAD-0061AS3 cells; assay: Caspase 3/7 enzymatic activity in cell homogenates (apoptosis); format: cell-based, human
Method: (§1) MCF-7 cells were treated with the indicated concentrations of NRG1-b1 for 10 minutes, and then cell extracts were prepared and subjected to Western blotting for the indicated phosphorylated (p) or total (t) proteins (FIG. 2A). […] Data were analyzed by nonlinear regression using GraphPad Prism 8. There were four replicates of each condition and data represent the mean±SD. […] Cells were counted on the days indicated on the graph. Results represent the mean±SD of duplicates of each condition in one representative experiment. MDA-MB-175-VII (FIG. 2D) and LUAD-0061AS3 (FIG. 2E) cells were treated with the indicated concentrations of inhibitors for 48 hours, and then caspase 3/7 enzymatic activity was measured in cell homogenates. Carfilzomib (20S proteasome inhibitor) was used as a positive control for apoptosis. Results are the mean±SEM of three independent experiments in which each condition was assayed in three replicate determinations. The absence of an error bar for any data point indicates an error value too small to be represented on the scale used.
(§2) As a positive control for activation of caspase 3/7, 1 μmol/L carfilzomib was used.

[2] = tested on: MDA-MB-175-VII cells; assay: as above; format: cell-based, human
Method: as §1, §2

[3] = tested on: OV-10-0050 PDX tumors; assay: HGSOC ovarian PDX model efficacy (CLU-NRG1); format: in vivo, mice; parameters: average tumor volume at the time of the last treatment: unit not given beside the values; settings: afatinib 5 mg/kg once daily, day 27
From the text: IHC characterization of the OV-10-0050 PDX model (FIG. 6A). H&E staining, WT1, and TP53 IHC (left to right). […] (FIG. 6B). Treatment was terminated on day 27 and animals were monitored for tumor regrowth until tumors reached maximum allowable size or until 90 days after treatment initiation. Results represent the mean tumor volume ±SEM. A zoom-in view on tumor volumes during the last 40 days of monitoring of seribantumab-treated groups (right). […] Change in the volume of individual tumors (day 27 vs. volume at start of treatment) (FIG. 6C).
Crushed PDX tumor samples were mixed with Matrigel (50%) and injected into the subcutaneous flank of 6-week-old female NSG (LUAD-0061AS3) or Balb/c nude (OV-10-0050) mice. When tumors reached approximately 100-150 mm3, mice were randomly assigned to groups of 5-8 and treatment was commenced. There were 2 mice per group with bilateral flank tumors for the protein phosphorylation/expression study in the LUAD-0061AS3 PDX model. Drugs were administered once, and then tumors were collected at 2, 24, and 168 hours posttreatment. Afatinib was administered by oral gavage once daily as a suspension (in 0.5% methylcellulose-0.4% Tween-80) on a 5-days-on and 2-days-off schedule. […] Mice were observed daily throughout the treatment period for signs of morbidity and mortality. Tumor length and width and animal weights were measured twice weekly. Tumor volume was calculated using the empirical formula V=length×width 2×0.52. The percentage change in tumor volume of each tumor was calculated using the formula [(V2−V1)/V1)]×100, where V1 is the starting tumor volume and V2 is the final tumor volume.
RT-PCR confirmed the presence of the CLU-NRG1 fusion. Xenograft tissue morphology and IHC markers (positive for WT1 and strong nuclear staining for TP53) were consistent with HGSOC histology (FIG. 6A; Kobel M, et al., Int. J. Gynecol. Pathol. 2016; 35:430-41). […] As with the above experiments in the NSCLC PDX model, the doses of seribantumab used here were lower than the dose that is used in patients. Treatment was terminated at day 27 and tumor growth was monitored for an additional 63 days (90 days after initiation of treatment or once tumors reached the maximum allowable size). The tumor volume as a function of time is illustrated in FIG. 6B, and the AUC was computed for each group to compare tumor volumes between groups at the last date of treatment. […] Forty-one days after treatment began, mice bearing vehicle- and afatinib-treated tumors were sacrificed because of the high tumor burden.

[4] = molecular target: human ERBB3 (HER3) (human, UniProt P21860 20-1342); assay: cell-based or functional assay
[5] = 1 μmol/L carfilzomib, positive control

Chain of human ERBB3 (HER3) (P21860 other isoform, or with tags, fused parts or gaps): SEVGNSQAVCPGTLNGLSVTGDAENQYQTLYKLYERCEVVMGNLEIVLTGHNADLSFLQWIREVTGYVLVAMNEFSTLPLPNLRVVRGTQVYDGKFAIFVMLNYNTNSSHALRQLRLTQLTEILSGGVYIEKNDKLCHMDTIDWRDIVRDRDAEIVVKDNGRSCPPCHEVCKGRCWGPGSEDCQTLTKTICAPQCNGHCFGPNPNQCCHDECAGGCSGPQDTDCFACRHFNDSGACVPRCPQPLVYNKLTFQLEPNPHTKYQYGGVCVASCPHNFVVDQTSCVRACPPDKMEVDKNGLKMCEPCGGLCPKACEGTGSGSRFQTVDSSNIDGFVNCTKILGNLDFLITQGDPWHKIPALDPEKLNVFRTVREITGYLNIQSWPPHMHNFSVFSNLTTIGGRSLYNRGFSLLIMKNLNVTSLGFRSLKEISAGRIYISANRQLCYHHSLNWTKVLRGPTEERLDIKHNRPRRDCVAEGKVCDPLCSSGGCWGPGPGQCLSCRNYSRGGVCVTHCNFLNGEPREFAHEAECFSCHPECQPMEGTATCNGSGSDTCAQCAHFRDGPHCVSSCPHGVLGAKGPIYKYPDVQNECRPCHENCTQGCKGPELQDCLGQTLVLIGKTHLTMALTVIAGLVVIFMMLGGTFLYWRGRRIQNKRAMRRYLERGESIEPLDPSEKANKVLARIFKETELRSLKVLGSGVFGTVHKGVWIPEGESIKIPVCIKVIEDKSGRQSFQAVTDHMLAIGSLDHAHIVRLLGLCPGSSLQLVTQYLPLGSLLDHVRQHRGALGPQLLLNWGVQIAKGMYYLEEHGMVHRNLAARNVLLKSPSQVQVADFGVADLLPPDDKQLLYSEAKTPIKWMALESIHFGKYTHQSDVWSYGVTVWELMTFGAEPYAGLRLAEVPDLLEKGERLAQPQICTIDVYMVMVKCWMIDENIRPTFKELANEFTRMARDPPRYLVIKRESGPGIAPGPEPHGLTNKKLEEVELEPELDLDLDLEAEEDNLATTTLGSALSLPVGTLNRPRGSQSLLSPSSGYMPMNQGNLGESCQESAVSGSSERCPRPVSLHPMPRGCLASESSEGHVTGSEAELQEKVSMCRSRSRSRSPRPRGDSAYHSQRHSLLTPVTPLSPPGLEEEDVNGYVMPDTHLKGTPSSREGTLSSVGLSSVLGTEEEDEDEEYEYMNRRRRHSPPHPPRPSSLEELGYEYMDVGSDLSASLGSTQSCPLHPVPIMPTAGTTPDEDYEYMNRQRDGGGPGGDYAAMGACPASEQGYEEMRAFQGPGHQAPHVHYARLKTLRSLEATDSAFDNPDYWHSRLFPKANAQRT

Molecule: CN(C)C/C=C/C(=O)Nc1cc2c(Nc3ccc(F)c(Cl)c3)ncnc2cc1O[C@H]1CCOC1 [afatinib]
- caspase 3/7 activity ([1]; highest concentration used, 48 hours): 3.3±0.1 fold above control
- caspase 3/7 activity ([2]; 10 μmol/L, 48 hours): 14.1±3.6 fold above control
- average tumor volume at the time of the last treatment [3]: 786.4±190.5

Molecule: CC(C)C[C@H](NC(=O)[C@H](CCc1ccccc1)NC(=O)CN1CCOCC1)C(=O)N[C@@H](Cc1ccccc1)C(=O)N[C@@H](CC(C)C)C(=O)[C@@]1(C)CO1 [carfilzomib]
- caspase 3/7 activity [1, 5]: 5.8±1.3 fold above control
- caspase 3/7 activity [2, 5]: 16.6±1.9 fold above control

B1: seribantumab (antibody, human IgG2, lambda, V domains shown)
VH: EVQLLESGGGLVQPGGSLRLSCAASGFTFSHYVMAWVRQAPGKGLEWVSSISSSGGWTLYADSVKGRFTISRDNSKNTLYLQMNSLRAEDTAVYYCTRGLKMATIFDYWGQGTLVTVSS
VL: QSALTQPASVSGSPGQSITISCTGTSSDVGSYNVVSWYQQHPGKAPKLIIYEVSQRPSGVSNRFSGSKSGNTASLTISGLQTEDEADYYCCSYAGSSIFVIFGGGTKVTVLG
- IC50 for growth inhibition, HBECp53 cells (nontumor, no NRG1 fusion, control), 96 h, AlamarBlue viability [4]: 203 µM
- IC50 for growth inhibition, LUAD-0061AS3 cells (SLC3A2-NRG1 fusion), 96 h, AlamarBlue viability [4]: 1.4 µM
- IC50 for growth inhibition, MCF-7 cells (no NRG1 fusion, control), 96 h, AlamarBlue viability [4]: 45.2 µM
- IC50 for growth inhibition, MDA-MB-175-VII cells (DOC4-NRG1 fusion), 96 h, AlamarBlue viability [4]: 0.02 µM
- caspase 3/7 activity, LUAD-0061AS3 cells, highest concentration used, 48 h [4]: 4 fold above control
- caspase 3/7 activity, MDA-MB-175-VII cells, 10 µmol/L, 48 h [4]: 12.7 fold above control
